Results on four molecules are retold here after US20190352356A1.

Substitutions are numbered along the chain they refer to. Numbers in names are those of the source. Bridges are numbered along the chain shown (N, C = ends). Where no end group is shown, it is not given here.

The labels stand for the following.
B1: exemplary mutant-hIAPP polypeptide mutant analog 1 (N22K, G24P, I26P, N31K) (peptide)
peptide: KCNTATCATQRLANFLVHSSNKFPAPLSSTKVGSNTY
HELM: PEPTIDE1{K.C.N.T.A.T.C.A.T.Q.R.L.A.N.F.L.V.H.S.S.N.K.F.P.A.P.L.S.S.T.K.V.G.S.N.T.Y.[am]}$PEPTIDE1,PEPTIDE1,2:R3-7:R3$$$V2.0; N-terminus assumed
SMILES: CC(C)C[C@H](NC(=O)[C@H](CCCNC(=N)N)NC(=O)[C@H](CCC(N)=O)NC(=O)[C@@H](NC(=O)[C@H](C)NC(=O)[C@@H]1CSSC[C@H](NC(=O)[C@@H](N)CCCCN)C(=O)N[C@@H](CC(N)=O)C(=O)N[C@@H]([C@@H](C)O)C(=O)N[C@@H](C)C(=O)N[C@@H]([C@@H](C)O)C(=O)N1)[C@@H](C)O)C(=O)N[C@@H](C)C(=O)N[C@@H](CC(N)=O)C(=O)N[C@@H](Cc1ccccc1)C(=O)N[C@@H](CC(C)C)C(=O)N[C@H](C(=O)N[C@@H](Cc1c[nH]cn1)C(=O)N[C@@H](CO)C(=O)N[C@@H](CO)C(=O)N[C@@H](CC(N)=O)C(=O)N[C@@H](CCCCN)C(=O)N[C@@H](Cc1ccccc1)C(=O)N1CCC[C@H]1C(=O)N[C@@H](C)C(=O)N1CCC[C@H]1C(=O)N[C@@H](CC(C)C)C(=O)N[C@@H](CO)C(=O)N[C@@H](CO)C(=O)N[C@H](C(=O)N[C@@H](CCCCN)C(=O)N[C@H](C(=O)NCC(=O)N[C@@H](CO)C(=O)N[C@@H](CC(N)=O)C(=O)N[C@H](C(=O)N[C@@H](Cc1ccc(O)cc1)C(N)=O)[C@@H](C)O)C(C)C)[C@@H](C)O)C(C)C
B2: exemplary mutant-hIAPP polypeptide mutant analog 2 (N21K, G24P, I26P, N35K) (peptide)
peptide: B1 peptide with N21K, K22N, K31N, N35K
HELM: PEPTIDE1{K.C.N.T.A.T.C.A.T.Q.R.L.A.N.F.L.V.H.S.S.K.N.F.P.A.P.L.S.S.T.N.V.G.S.K.T.Y.[am]}$PEPTIDE1,PEPTIDE1,2:R3-7:R3$$$V2.0; N-terminus assumed
SMILES: CC(C)C[C@H](NC(=O)[C@H](CCCNC(=N)N)NC(=O)[C@H](CCC(N)=O)NC(=O)[C@@H](NC(=O)[C@H](C)NC(=O)[C@@H]1CSSC[C@H](NC(=O)[C@@H](N)CCCCN)C(=O)N[C@@H](CC(N)=O)C(=O)N[C@@H]([C@@H](C)O)C(=O)N[C@@H](C)C(=O)N[C@@H]([C@@H](C)O)C(=O)N1)[C@@H](C)O)C(=O)N[C@@H](C)C(=O)N[C@@H](CC(N)=O)C(=O)N[C@@H](Cc1ccccc1)C(=O)N[C@@H](CC(C)C)C(=O)N[C@H](C(=O)N[C@@H](Cc1c[nH]cn1)C(=O)N[C@@H](CO)C(=O)N[C@@H](CO)C(=O)N[C@@H](CCCCN)C(=O)N[C@@H](CC(N)=O)C(=O)N[C@@H](Cc1ccccc1)C(=O)N1CCC[C@H]1C(=O)N[C@@H](C)C(=O)N1CCC[C@H]1C(=O)N[C@@H](CC(C)C)C(=O)N[C@@H](CO)C(=O)N[C@@H](CO)C(=O)N[C@H](C(=O)N[C@@H](CC(N)=O)C(=O)N[C@H](C(=O)NCC(=O)N[C@@H](CO)C(=O)N[C@@H](CCCCN)C(=O)N[C@H](C(=O)N[C@@H](Cc1ccc(O)cc1)C(N)=O)[C@@H](C)O)C(C)C)[C@@H](C)O)C(C)C
B3: exemplary mutant-hIAPP polypeptide mutant analog 3 (N21K, N35K) (peptide)
peptide: KCNTATCATQRLANFLVHSSKNFGAILSSTNVGSKTY
HELM: PEPTIDE1{K.C.N.T.A.T.C.A.T.Q.R.L.A.N.F.L.V.H.S.S.K.N.F.G.A.I.L.S.S.T.N.V.G.S.K.T.Y.[am]}$PEPTIDE1,PEPTIDE1,2:R3-7:R3$$$V2.0; N-terminus assumed
SMILES: CC[C@H](C)[C@H](NC(=O)[C@H](C)NC(=O)CNC(=O)[C@H](Cc1ccccc1)NC(=O)[C@H](CC(N)=O)NC(=O)[C@H](CCCCN)NC(=O)[C@H](CO)NC(=O)[C@H](CO)NC(=O)[C@H](Cc1c[nH]cn1)NC(=O)[C@@H](NC(=O)[C@H](CC(C)C)NC(=O)[C@H](Cc1ccccc1)NC(=O)[C@H](CC(N)=O)NC(=O)[C@H](C)NC(=O)[C@H](CC(C)C)NC(=O)[C@H](CCCNC(=N)N)NC(=O)[C@H](CCC(N)=O)NC(=O)[C@@H](NC(=O)[C@H](C)NC(=O)[C@@H]1CSSC[C@H](NC(=O)[C@@H](N)CCCCN)C(=O)N[C@@H](CC(N)=O)C(=O)N[C@@H]([C@@H](C)O)C(=O)N[C@@H](C)C(=O)N[C@@H]([C@@H](C)O)C(=O)N1)[C@@H](C)O)C(C)C)C(=O)N[C@@H](CC(C)C)C(=O)N[C@@H](CO)C(=O)N[C@@H](CO)C(=O)N[C@H](C(=O)N[C@@H](CC(N)=O)C(=O)N[C@H](C(=O)NCC(=O)N[C@@H](CO)C(=O)N[C@@H](CCCCN)C(=O)N[C@H](C(=O)N[C@@H](Cc1ccc(O)cc1)C(N)=O)[C@@H](C)O)C(C)C)[C@@H](C)O
B4: exemplary mutant-hIAPP polypeptide mutant analog 4 (N22K, S28P, N31K as SEQ ID NO: 22 is printed) (peptide)
peptide: KCNTATCATQRLANFLVHSSNKFGAILPSTKVGSNTY-NH2
modifications: disulfide 2-7; not fully specified; printed as KCNTATCATQRLANFLVHSSNKFGAILPSTKVGSNTY-NH2

Sequence of human calcitonin receptor (hCT(a)) (human) (P30988 25-474): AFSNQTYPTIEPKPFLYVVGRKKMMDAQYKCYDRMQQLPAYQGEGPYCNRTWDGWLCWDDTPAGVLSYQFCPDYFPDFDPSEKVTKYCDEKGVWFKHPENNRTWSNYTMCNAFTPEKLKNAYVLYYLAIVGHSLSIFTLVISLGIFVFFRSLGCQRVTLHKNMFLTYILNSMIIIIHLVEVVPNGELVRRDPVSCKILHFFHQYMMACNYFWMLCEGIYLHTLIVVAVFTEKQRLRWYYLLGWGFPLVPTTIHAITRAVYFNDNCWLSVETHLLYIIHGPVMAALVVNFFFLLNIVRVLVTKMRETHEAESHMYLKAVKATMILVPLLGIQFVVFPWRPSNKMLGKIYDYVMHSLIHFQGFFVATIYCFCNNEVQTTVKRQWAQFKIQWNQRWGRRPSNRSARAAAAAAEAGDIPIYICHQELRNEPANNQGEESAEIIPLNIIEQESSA

In one experiment the target is human amylin receptor (hAMY1(a)) (human) (UniProt P30988). Put plainly: cell-based or functional assay.
Sequence of human amylin receptor (hAMY1(a)) (human) (P30988 25-474, chain 1 of 2): as the sequence (P30988 25-474) above
Sequence of human amylin receptor (hAMY1(a)) (human) (O60894 27-148, chain 2 of 2, further chain): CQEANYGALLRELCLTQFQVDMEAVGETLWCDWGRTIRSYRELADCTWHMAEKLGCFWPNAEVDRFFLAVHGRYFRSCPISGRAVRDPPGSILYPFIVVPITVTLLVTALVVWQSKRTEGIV
B1 gave a pEC50 of cAMP production (pEC50 (-log10(EC50))) of 8.47.

B2 returned a pEC50 of cAMP production (pEC50 (-log10(EC50))) of 8.75.

Take B3: the pEC50 of cAMP production (pEC50 (-log10(EC50))) is 9.13.

Take B4: the pEC50 of cAMP production (pEC50 (-log10(EC50))) is 9.43.

The next experiment has as its target human calcitonin receptor (hCT(a)) (human) (UniProt P30988). Kind of experiment: cell-based or functional assay.
B1: the pEC50 of cAMP production (pEC50 (-log10(EC50))) came to 8.3.

As for B2, the pEC50 of cAMP production (pEC50 (-log10(EC50))) was 7.97.

As to B3, the pEC50 of cAMP production (pEC50 (-log10(EC50))) came to 8.62.

For B4, the pEC50 of cAMP production (pEC50 (-log10(EC50))) came out at 8.55.
